B1: EEHEE_rd3_0130 (parent)
chain: TKIIVNGKTFTAPTEEEAQKIAEKLAKKAGLTVHKKNGTFELK

Variants of: B1
Assay: folding stability dG (cDNA display proteolysis); higher = more stable
Conditions: PBS, room temperature

First: TKIIVNGKTFTAPTEEEAQKIAEKLAKKAGQTVHKKNGTFELK [L31Q]
Second: TKIIVNGKTFTAPTEEEAQKIAEKLAKKAGPTVHKKNGTFELK [L31P]
The “folding stability dG” value of the first is higher: -0.255 kcal/mol for the first, -0.624 kcal/mol for the second.

Compared with TKIIVNGKTFTAPTEEEAQKIAEKLAKKAGKTVHKKNGTFELK [L31K], TKIIVNGKTFTAPTEEEAQKIAEKLAKKAGCTVHKKNGTFELK [L31C] is higher in “folding stability dG” value: -0.636 kcal/mol for the first, -0.1 kcal/mol for the second.

Compared with TKIIVNGKTFTAPTEEEAQKIAEKLAKKAGNTVHKKNGTFELK [L31N], TKIIVNGKTFTAPTEEEAQKIAEKLAKKAGFTVHKKNGTFELK [L31F] is higher in “folding stability dG” value: -0.814 kcal/mol for the first, 0.713 kcal/mol for the second.

First: TKIIVNGKTFTAPTEEEAQKIAEKLAKKAGRTVHKKNGTFELK [L31R]
Second: TKIIVNGKTFTAPTEEEAQKIAEKLAKKAGMTVHKKNGTFELK [L31M]
The “folding stability dG” value of the first is lower: -0.423 kcal/mol for the first, 0.895 kcal/mol for the second.

First: TKIIVNGKTFTAPTEEEAQKIAEKLAKKAGTTVHKKNGTFELK [L31T]
Second: TKIIVNGKTFTAPTEEEAQKIAEKLAKKAGATVHKKNGTFELK [L31A]
The “folding stability dG” value of the first is lower: -0.366 kcal/mol for the first, -0.168 kcal/mol for the second.

Compared with TKIIVNGKTFTAPTEEEAQKIAEKLAKKAGYTVHKKNGTFELK [L31Y], TKIIVNGKTFTAPTEEEAQKIAEKLAKKAGSTVHKKNGTFELK [L31S] is lower in “folding stability dG” value: 0.657 kcal/mol for the first, -0.591 kcal/mol for the second.

Compared with TKIIVNGKTFTAPTEEEAQKIAEKLAKKAGITVHKKNGTFELK [L31I], TKIIVNGKTFTAPTEEEAQKIAEKLAKKAGHTVHKKNGTFELK [L31H] is higher in “folding stability dG” value: -0.35 kcal/mol for the first, -0.13 kcal/mol for the second.

Compared with TKIIVNGKTFTAPTEEEAQKIAEKLAKKAGVTVHKKNGTFELK [L31V], TKIIVNGKTFTAPTEEEAQKIAEKLAKKAGWTVHKKNGTFELK [L31W] is higher in “folding stability dG” value: -0.031 kcal/mol for the first, 0.742 kcal/mol for the second.

Going from TKIIVNGKTFTAPTEEEAQKIAEKLAKKAGDTVHKKNGTFELK [L31D] to TKIIVNGKTFTAPTEEEAQKIAEKLAKKAGGTVHKKNGTFELK [L31G], the “folding stability dG” value falls from -0.475 kcal/mol to -0.504 kcal/mol.

Compared with TKIIVNGKTFTAPTEEEAQKIAEKLAKKAGETVHKKNGTFELK [L31E], TKIIVNGKTFTAPTEEEAQKIAEKLAKKDGLTVHKKNGTFELK [A29D] is higher in “folding stability dG” value: -0.89 kcal/mol for the first, 0.326 kcal/mol for the second.

First: TKIIVNGKTFTAPTEEEAQKIAEKLAKKRGLTVHKKNGTFELK [A29R]
Second: TKIIVNGKTFTAPTEEEAQKIAEKLAKKHGLTVHKKNGTFELK [A29H]
The “folding stability dG” value of the first is lower: 1.04 kcal/mol for the first, 2.12 kcal/mol for the second.

First: TKIIVNGKTFTAPTEEEAQKIAEKLAKKLGLTVHKKNGTFELK [A29L]
Second: TKIIVNGKTFTAPTEEEAQKIAEKLAKKVGLTVHKKNGTFELK [A29V]
The “folding stability dG” value of the first is higher: 2.45 kcal/mol for the first, 0.495 kcal/mol for the second.

First: TKIIVNGKTFTAPTEEEAQKIAEKLAKKPGLTVHKKNGTFELK [A29P]
Second: TKIIVNGKTFTAPTEEEAQKIAEKLAKKTGLTVHKKNGTFELK [A29T]
The “folding stability dG” value of the first is lower: -0.744 kcal/mol for the first, 1.2 kcal/mol for the second.

First: TKIIVNGKTFTAPTEEEAQKIAEKLAKKKGLTVHKKNGTFELK [A29K]
Second: TKIIVNGKTFTAPTEEEAQKIAEKLAKKEGLTVHKKNGTFELK [A29E]
The “folding stability dG” value of the first is higher: 0.837 kcal/mol for the first, 0.607 kcal/mol for the second.

Compared with TKIIVNGKTFTAPTEEEAQKIAEKLAKKFGLTVHKKNGTFELK [A29F], TKIIVNGKTFTAPTEEEAQKIAEKLAKKNGLTVHKKNGTFELK [A29N] is lower in “folding stability dG” value: 2.88 kcal/mol for the first, 1.17 kcal/mol for the second.

Compared with TKIIVNGKTFTAPTEEEAQKIAEKLAKKMGLTVHKKNGTFELK [A29M], TKIIVNGKTFTAPTEEEAQKIAEKLAKKSGLTVHKKNGTFELK [A29S] is lower in “folding stability dG” value: 2.08 kcal/mol for the first, 0.857 kcal/mol for the second.

Compared with TKIIVNGKTFTAPTEEEAQKIAEKLAKKGGLTVHKKNGTFELK [A29G], TKIIVNGKTFTAPTEEEAQKIAEKLAKKIGLTVHKKNGTFELK [A29I] is higher in “folding stability dG” value: 0.616 kcal/mol for the first, 0.979 kcal/mol for the second.

Compared with TKIIVNGKTFTAPTEEEAQKIAEKLAKKYGLTVHKKNGTFELK [A29Y], TKIIVNGKTFTAPTEEEAQKIAEKLAKKQGLTVHKKNGTFELK [A29Q] is lower in “folding stability dG” value: 3.33 kcal/mol for the first, 0.726 kcal/mol for the second.

First: TKIIVNGKTFTAPTEEEAQKIAEKLAKKCGLTVHKKNGTFELK [A29C]
Second: TKIIVNGKTFTAPTEEEAQKIAEKLAKKWGLTVHKKNGTFELK [A29W]
The “folding stability dG” value of the first is lower: 2.56 kcal/mol for the first, 3.21 kcal/mol for the second.

First: TKIIVNGKTFTAPTEEEAQKIAEKLAYKAGLTVHKKNGTFELK [K27Y]
Second: TKIIVNGKTFTAPTEEEAQKIAEKLAWKAGLTVHKKNGTFELK [K27W]
The “folding stability dG” value of the first is lower: 0.616 kcal/mol for the first, 0.749 kcal/mol for the second.

Going from TKIIVNGKTFTAPTEEEAQKIAEKLAVKAGLTVHKKNGTFELK [K27V] to TKIIVNGKTFTAPTEEEAQKIAEKLATKAGLTVHKKNGTFELK [K27T], the “folding stability dG” value rises from 0.456 kcal/mol to 0.52 kcal/mol.

Compared with TKIIVNGKTFTAPTEEEAQKIAEKLAKNAGLTVHKKNGTFELK [K28N], TKIIVNGKTFTAPTEEEAQKIAEKLAKMAGLTVHKKNGTFELK [K28M] is higher in “folding stability dG” value: 0.582 kcal/mol for the first, 1.05 kcal/mol for the second.

First: TKIIVNGKTFTAPTEEEAQKIAEKLAKEAGLTVHKKNGTFELK [K28E]
Second: TKIIVNGKTFTAPTEEEAQKIAEKLAKGAGLTVHKKNGTFELK [K28G]
The “folding stability dG” value of the first is higher: 0.862 kcal/mol for the first, 0.475 kcal/mol for the second.

Compared with TKIIVNGKTFTAPTEEEAQKIAEKLAKTAGLTVHKKNGTFELK [K28T], TKIIVNGKTFTAPTEEEAQKIAEKLAKWAGLTVHKKNGTFELK [K28W] is higher in “folding stability dG” value: 0.727 kcal/mol for the first, 1.53 kcal/mol for the second.

First: TKIIVNGKTFTAPTEEEAQKIAEKLAKVAGLTVHKKNGTFELK [K28V]
Second: TKIIVNGKTFTAPTEEEAQKIAEKLAKPAGLTVHKKNGTFELK [K28P]
The “folding stability dG” value of the first is higher: 0.795 kcal/mol for the first, 0.128 kcal/mol for the second.

Going from TKIIVNGKTFTAPTEEEAQKIAEKLAKIAGLTVHKKNGTFELK [K28I] to TKIIVNGKTFTAPTEEEAQKIAEKLAKSAGLTVHKKNGTFELK [K28S], the “folding stability dG” value falls from 0.992 kcal/mol to 0.779 kcal/mol.

Compared with TKIIVNGKTFTAPTEEEAQKIAEKLAKFAGLTVHKKNGTFELK [K28F], TKIIVNGKTFTAPTEEEAQKIAEKLAKRAGLTVHKKNGTFELK [K28R] is higher in “folding stability dG” value: 0.971 kcal/mol for the first, 1.14 kcal/mol for the second.

First: TKIIVNGKTFTAPTEEEAQKIAEKLAKYAGLTVHKKNGTFELK [K28Y]
Second: TKIIVNGKTFTAPTEEEAQKIAEKLAKQAGLTVHKKNGTFELK [K28Q]
The “folding stability dG” value of the first is higher: 1.06 kcal/mol for the first, 0.873 kcal/mol for the second.

First: TKIIVNGKTFTAPTEEEAQKIAEKLAKLAGLTVHKKNGTFELK [K28L]
Second: TKIIVNGKTFTAPTEEEAQKIAEKLAKHAGLTVHKKNGTFELK [K28H]
The “folding stability dG” value of the first is higher: 1.03 kcal/mol for the first, 0.757 kcal/mol for the second.

For TKIIVNGKTFTAPTEEEAQKIAEKLAKDAGLTVHKKNGTFELK [K28D], the “folding stability dG” value was 0.738 kcal/mol.

Source: the MegaScale stability set (Tsuboyama et al. 2023)
